In US20250282887A1 (Amgen, published 2025):
Positions count from the first letter of the chain named.

B1: 1C3 (antibody, V domains shown)
VH: QSLEESGGGLVQPEGSLTLTCTAFGVTLTNYYICWVRQAPGKGLEWVGCIDNANGRTYYASWAKGRFTISKTSSTTGTLQMTSLTAADTATYFCARSLATPLWGPGTLVTVSS
VL: DIVMTQTPSSVEAAVGGTVTIKCQASQNISSYLAWYQQKPGQPPKLLIYRASTLASGVPSRFKGSGSGTQFTLTISDLECADAATYYCQSYDDSRSSNFFYAFGGGTEVVVKG
notes: also called MAGE-B2 (IC3); anti-MAGEB2 antibody 1C3
B2: 4G17 (antibody, IgG1, V domains shown)
VH: B1 VH with F24S, T29S, V47I, A53V
VL: DIVMTQTPASVEAAVGGTVTIKCQASQNIDSYLAWYQQKPGQPPKLLIYRASTLASGVPSRFKGSGSGTEFTLTISDLECADAATYYCQSYDDSRSSSFFYGFGGGTEVVVK
notes: Rabbit monoclonal IgG1; Tested as supernatant and as small batch purified antibody; also called MAGE-B2 (4G17); anti-MAGEB2 antibody 4G17
B3: 1J15 (antibody, IgG1, V domains shown)
VH: B1 VH with V26F, T29N, V47I, G48A, G77V, A99S
VL: B2 VL with N28S, D30S, A34S, K63R, E70Q, R95S, S96D, S97N, S98N, K112R
notes: Rabbit monoclonal IgG1; Tested as supernatant and as small batch purified antibody; also called MAGE-B2 (IJ15); anti-MAGEB2 antibody 1J15
B4: 1I14 (antibody, V domains shown)
VH: QSVEESGGRLVTPGTPLTLTCTISGFSLSSYAMSWVRQAPGKGLEWIGSIGGGGSAVYASWAKGRFTISKTSTTVDLRITSPTTEDTAMYFCGRGFYSIDLWGPGTLVTVSS
VL: DVVMTQTPASVEATVGGTVTIKCQSSQSVYDNNALAWYQQNAGQRPRLLIYGASTLASGVPSRFSASGSGTEFTLTISDLECADAATYYCQCTYYVSSYQNDFGGGTEVVVKG
notes: also called MAGE-B2 (1i14)

These binders were tested against T1, Human MAGEB2 (Melanoma-associated antigen B2) (human, UniProt O15479 1-319) (assay: IHC on FFPE UACC-257 cells (endogenous MAGEB2)).
T1 construct: Intracellular antigen detected by IHC in FFPE material: CHO cells transfected with human MAGEB2 (mCherry vector with Myc/DDK tags, or ORF without tags)
T1 sequence: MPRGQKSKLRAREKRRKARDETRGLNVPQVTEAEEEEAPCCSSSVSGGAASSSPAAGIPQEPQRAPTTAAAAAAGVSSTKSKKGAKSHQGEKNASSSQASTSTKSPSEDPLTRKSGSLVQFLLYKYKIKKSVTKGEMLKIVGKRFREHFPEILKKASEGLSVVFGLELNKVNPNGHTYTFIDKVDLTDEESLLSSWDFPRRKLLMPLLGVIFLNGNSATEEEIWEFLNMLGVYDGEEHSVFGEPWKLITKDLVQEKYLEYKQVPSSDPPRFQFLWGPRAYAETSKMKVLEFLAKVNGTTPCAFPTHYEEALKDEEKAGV
Protocol: (§1) FFPE samples were sectioned at 4 μm and mounted on positive charged glass slides. After mounting, paraffin sections were air-dried at room temperature. FFPE TMA samples were received as freshly sectioned and mounted on glass slides. The fully automated IHC assay was performed on a Discovery Ultra Stainer (Ventana Medical Systems, Tucson, AZ) using Ventana Anti-Rabbit HQ (cat #760-4815), Ventana Anti-HQ HRP (cat #760-4820), and Ventana Antibody Diluent with Casein (cat #760-219) (Ventana Medical Systems, Tucson, AZ). The slides were baked on the Discovery Ultra Stainer at 60° C. for 8 minutes, de-paraffinized with Ventana Discovery wash (cat #950-510) for 3 cycles (8 minutes each) at 69° C., and underwent cell conditioning (target retrieval) at 95° C. for 16 minutes (for cell arrays) or 32 minutes (tissues or TMAs) in CC1 buffer (cat #950-500). Following this, slides were incubated with Background Sniper (cat #BS966M, Biocare Medical, Pacheco, CA) in a Ventana Option Prep kit (cat #771-751) for 28 minutes, incubated with CM inhibitor (a part of the Ventana DAB kit cat #760-159) for 12 minutes, and incubated for 1 h at RT with MAGE-B2 antibody diluted with Ventana diluent with Casein in a Ventana Prep kit (cat #770-001) (working concentration at 0.1 μg/ml for cell pellet, or 1-5 ug/ml for tissues) or with a matched concentration of isotype control Rabbit IgG1 antibody. Following this, slides were incubated with the Ventana Anti-Rabbit HQ (cat #760-4815) for 28 minutes at RT, Ventana Anti-HQ HRP (cat #760-4820) for 28 minutes at RT, and signals detected with Ventana DAB chromogen kit (cat #760-159) for 5 minutes at RT. Slides were counterstained with Ventana Hematoxylin II (cat #5266726001) for 8 minutes and Ventana Bluing reagent (cat #526676900) for 4 minutes. Slides were coverslipped and digitized using an Aperio AT2 scanner (Leica Biosystems Inc, Buffalo Grove, IL).
In the case of B1, the “IHC % Frequency” value is reported as 0%.
With B2 the “IHC % Frequency” value was 0% and the “IHC Intensity” value was 0.
In the case of B3, the “IHC % Frequency” value is reported as 0% and the “IHC Intensity” value is reported as 0.
B4 was tested, and the “IHC % Frequency” value was 0%.

What follows are binders tested against T2, human MAGEB4 (human, UniProt O15481 1-346) (assay: IHC, FFPE CHO cells transfected with human MAGEB4).
T2 construct: whole, on cells
T2 sequence (looked up): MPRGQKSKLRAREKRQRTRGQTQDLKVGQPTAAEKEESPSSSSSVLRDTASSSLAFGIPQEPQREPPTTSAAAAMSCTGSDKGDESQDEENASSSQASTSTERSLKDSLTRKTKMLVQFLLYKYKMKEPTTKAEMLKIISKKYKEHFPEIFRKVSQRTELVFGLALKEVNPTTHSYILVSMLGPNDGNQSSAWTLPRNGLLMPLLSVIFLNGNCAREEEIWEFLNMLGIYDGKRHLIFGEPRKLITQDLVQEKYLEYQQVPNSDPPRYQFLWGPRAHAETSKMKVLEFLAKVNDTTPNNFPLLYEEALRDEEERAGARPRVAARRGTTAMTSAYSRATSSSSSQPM
Excerpt: Negative control cells included parental Chinese hamster ovary (CHO) cells, CHO cells stably transfected with mCherry Vector Control (minus Myc/DDK tags), CHO cells stably transfected with mCherry-human DCAF4L2 (plus Myc/DDK tags). The cross-reactivity control cells included CHO cells transfected with mCherry Vector Control (plus Myc/DDK tags) with one of the human MAGE-B or MAGE-A family members (MAGEA1, MAGEA2, MAGEA3, MAGEA4, MAGEA5, MAGEA6, MAGEA8, MAGEA9, MAGEA11, MAGEA12, MAGEB1, MAGEB3, MAGEB4, MAGEB5, MAGEB6, MAGEB10, MAGEB16, MAGEB17, MAGEB18). Positive control cell lines included CHO cells transfected with mCherry Vector (plus Myc/DDK tags) with human MAGE-B2 or CHO cells transfected with mCherry Vector (open reading frame (ORF); minus Myc/DDK tags) with human MAGEB2, and thirteen human cancer cell lines with known endogenous RNA expression level of MAGEB2 (U266B1, T98G, KMM-1, U20S, CFPAC-1, SCaBER, UACC-257, CFPAC-1, VMRC-LCD, NCI-H1703, UM-UC-3, NCI-H1395, NCIH82).
as §1, with “antibody.” for “antibody. Following this, slides were incubated with the Ventana Anti-Rabbit HQ (cat #760-4815) for 28 minutes at RT, Ventana Anti-HQ HRP (cat #760-4820) for 28 minutes at RT, and signals detected with Ventana DAB chromogen kit (cat #760-159) for 5 minutes at RT. Slides were counterstained with Ventana Hematoxylin II (cat #5266726001) for 8 minutes and Ventana Bluing reagent (cat #526676900) for 4 minutes. Slides were coverslipped and digitized using an Aperio AT2 scanner (Leica Biosystems Inc, Buffalo Grove, IL).”
B1: no binding (tested: 0.1 µg/ml).
B2: no binding (tested: 0.1 µg/ml).
B3: no binding (tested: 0.1 µg/ml).
B4: no binding (tested: 0.1 µg/ml).

Each binder was assayed against T1, Human MAGEB2 (Melanoma-associated …) (assay: IHC on FFPE UM-UC-3 cells (endogenous MAGEB2)).
Protocol: as §1
For B2, the “IHC Intensity” value was 0.
In the case of B3, the “IHC Intensity” value is reported as 0.
B4 was tested, and the “IHC Intensity” value was 0.
